One test concerns the target T1, 血清标本中的AFP抗原 (UniProt P02771 19-609).
T1 construct: also called 质控血清AFP; 标准血清中的AFP
T1 sequence (looked up): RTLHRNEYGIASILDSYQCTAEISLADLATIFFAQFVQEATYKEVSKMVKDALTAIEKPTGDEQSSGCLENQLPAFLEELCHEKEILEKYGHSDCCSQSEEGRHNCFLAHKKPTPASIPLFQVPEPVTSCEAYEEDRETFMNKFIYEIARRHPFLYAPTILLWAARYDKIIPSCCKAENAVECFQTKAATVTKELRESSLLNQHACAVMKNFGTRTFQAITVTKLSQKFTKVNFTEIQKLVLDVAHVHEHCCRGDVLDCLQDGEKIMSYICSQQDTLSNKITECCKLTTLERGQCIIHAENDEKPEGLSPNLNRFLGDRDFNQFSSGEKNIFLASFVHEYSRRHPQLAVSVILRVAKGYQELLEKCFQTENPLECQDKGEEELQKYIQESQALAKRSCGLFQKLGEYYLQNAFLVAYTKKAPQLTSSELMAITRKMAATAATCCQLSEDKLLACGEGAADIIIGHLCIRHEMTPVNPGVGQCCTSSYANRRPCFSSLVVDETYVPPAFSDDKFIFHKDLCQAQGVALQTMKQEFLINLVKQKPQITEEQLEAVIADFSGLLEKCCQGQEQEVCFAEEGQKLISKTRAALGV
In words: double-antibody sandwich chemiluminescence assay, detection antibody.

Test [1] addresses T2, 重组AFP抗原(爱必信生物，货号Abt-P-208，GenbankID:174) (UniProt P02771 19-609, limits assumed).
T2 construct: Bought recombinant antigen; also called 甲胎蛋白; α-fetoprotein
T2 sequence (looked up): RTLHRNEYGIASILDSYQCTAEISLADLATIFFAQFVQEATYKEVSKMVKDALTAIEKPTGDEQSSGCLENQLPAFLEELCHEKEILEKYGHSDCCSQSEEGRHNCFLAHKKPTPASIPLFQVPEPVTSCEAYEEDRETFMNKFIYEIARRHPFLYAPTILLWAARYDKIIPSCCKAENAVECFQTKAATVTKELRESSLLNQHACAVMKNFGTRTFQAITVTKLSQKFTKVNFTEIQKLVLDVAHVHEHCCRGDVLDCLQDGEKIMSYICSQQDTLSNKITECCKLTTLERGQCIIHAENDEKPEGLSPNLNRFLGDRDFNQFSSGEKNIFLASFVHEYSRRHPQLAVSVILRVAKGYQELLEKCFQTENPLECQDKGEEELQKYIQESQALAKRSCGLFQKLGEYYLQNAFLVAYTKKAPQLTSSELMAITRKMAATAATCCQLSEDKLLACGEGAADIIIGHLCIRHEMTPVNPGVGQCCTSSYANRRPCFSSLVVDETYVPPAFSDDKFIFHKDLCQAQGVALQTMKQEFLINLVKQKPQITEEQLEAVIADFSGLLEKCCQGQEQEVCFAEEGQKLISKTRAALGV
In words: ELISA additivity test on coated AFP. A general note: In an ELISA, binding on a coated surface is turned into a signal by an enzyme label.

B1: 带有化学发光区序列的纳米抗体1C5-HAP (other)
chain: QVQLQESGGGLVQAGGSLRLSCKASERTFSSYSMAWYRQAPGKKREFVASISWDDERTYYTDSVKGRFTISRPNAKNTVYLQMNSLKPEDTAVYYCAVGGLSDGLGPSYDYWGQGTQVTVSSGGGGSGGGGSGGGGSIIPVEEENPDFWNREAAEALGAAKKLQPAQTAAKNLIIFLGDGMGVSTVTAARILKGQKKDKLGPEIPLAMDRFPYVALSKTYNVDKHVPDSGATATAYLCGVKGNFQTIGLSAAARFNQCNTTRGNEVISVMNRAKKAGKSVGVVTTTRVQHASPAGTYAHTVNRNWYSDADVPASARQEGCQDIATQLISNMDIDVILGGGRKYMFRMGTPDPEYPDDYSQGGTRLDGKNLVQEWLAKRQGARYVWNRTELMQASLDPSVTHLMGLFEPGDMKYEIHRDSTLDPSLMEMTEAALRLLSRNPRGFFLFVEGGRIDHGHHESRAYRALTETIMFDDAIERAGQLTSEEDTLSLVTADHSHVFSFGGYPLRGSSIFGLAPGKARDRKAYTVLLYGNGPGYVLKDGARPDVTESESGSPEYRQQSAVPLDEETHAGEDVAVFARGPQAHLVHGVQEQTFIAHVMAFAACLEPYTACDLAPPAGTTD
notes: Expressed in 293 cells
For B1, in the test with 血清标本中的AFP抗原, the binding result was “binds”.

B2: 纳米抗体1C5 (VHH)
VHH: QVQLQESGGGLVQAGGSLRLSCKASERTFSSYSMAWYRQAPGKKREFVASISWDDERTYYTDSVKGRFTISRPNAKNTVYLQMNSLKPEDTAVYYCAVGGLSDGLGPSYDYWGQGTQVTVSS
As to B2, the binding result in test [1] was “binds”.

The record behind these values is patent CN113173994A (SHENZHEN INNOVA NANOBODI CO LTD, dated 2021).
